B1: TNXB (parent)
chain: LLQRELMVPGTRHSAVLRDLRSGT

Variants of: B1
Test: protein stability index of a GFP-peptide fusion (GPS, HEK-293T) (PSI 1-6); higher = more stable
Conditions: c terminus: a fixed tail appended
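Also: lentivirally expressed fusions sorted by FACS into six bins by GFP to DsRed ratio, PSI derived from sequencing read proportions per bin multiplied by bin number.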

Protein stability index of substitutions, site by site:
A15: C 1.72; D 2.29; E 2.92
V8: P 2.21; T 2.36; A 2.42; L 2.35; G 2.27; H 2.36; R 2.12; D 2.91; N 2.59; Q 2.22; F 2.28; E 2.62; C 2.12; M 2.15; S 3.11; K 2.46; Y 2.32; I 1.99; W 2.34
H13: K 2.09; V 2.1; S 2.9; A 2.53; M 2.25; T 2.22; E 2.82; F 1.59; R 3.11; Q 3; Y 2.15; C 2.1; L 2.01; G 2.31; D 3.23; P 3.06; N 2.58; W 2.01; I 1.91
R12: P 2.91; E 2.39; W 2.35; I 2.47; T 2.27; H 2.4; C 1.94; G 3.09; S 2.06; Q 2.42; V 2.26; Y 2.45; K 2.28; F 1.98; A 2.01; D 3.01; L 2.07; N 2.76; M 1.85
M7: S 3.42; R 2.16; V 2.67; K 2.52; I 2.44; D 3.17; H 2.35; N 2.57; T 2.72; E 3.61; A 2.97; P 3.11; F 2.02; Q 2.23; W 2.05; L 2.39; G 3.15; C 2.54; Y 3.15
P9: L 2.02; S 2.2; K 2.21; F 1.79; G 2.3; N 2.34; T 2.03; M 2.1; Q 2.1; C 2; H 2.23; D 2.69; R 2.21; E 2.54; I 1.58; A 2.35; W 1.68; Y 2.01; V 2.38
L6: I 2.19; Q 2.69; W 2.52; V 2.89; P 3.15; R 2.59; S 3.1; T 3.53; M 2.49; K 2.79; Y 2.63; N 2.9
T11: N 2.43; G 3.21; M 2.2; V 2.24; R 2.13; K 2.32; F 2.3; I 2.38; L 2.32; Y 1.94; W 1.69; D 2.81; A 2.2; S 2.5; E 2.65; H 2.68; P 2.51; C 1.56; Q 2.88
S14: W 2.11; Q 2.85; R 2.45; M 2.23; T 2.45; N 2.88; P 2.32; F 2.32; V 2.22; Y 2.71; L 1.61; G 2.63; I 1.75; A 2.2; D 2.66; C 2.03; K 2.67; H 2.26; E 2.54
G10: D 2.85; M 1.72; Y 1.09; P 2.54; Q 2.41; N 2.75; I 1.64; T 2.58; L 1.35; C 1.43; R 2.9; S 3.01; H 2.19; A 2.39; V 2.02; K 2; W 1.72; F 2.33; E 3.01

Reference: the supplement of paper PMC10567573
